Data published in article PMC9817231.
Like-named read-outs stand apart in the source and are kept apart here.

B1: SL1-4 (structured_RNA)
RNA: GGUUUAUACCUUCCCAGGUAACAAACCAACCAACUUUCGAUCUCUUGUAGAUCUGUUCUCUAAACGAACUUUAAAAUCUGUGUGGCUGUCACUCGGCUGCAUGCUUAGUGCACUCACGC

Legend:
[1] = target: T1, FL-Nsp1 (non-structural protein 1) (SARS-CoV-2, UniProt P0DTD1 1-180); assay: NMR
[2] = target: T1, FL-Nsp1 (non-structural protein 1); assay: NMR; remark: listed apart in the source

| Binder | binding result [1] | binding result [2] |
| --- | --- | --- |
| GGGUUUAUACCUUCCCAGGUAACAAACCC (structured_RNA) [SL1] | no binding | – |
| B1 | – | no binding |
